According to the supplement of paper PMC10567573:

B1: SMTNL2 (parent)
chain: AFTMAENLANCERLIEVEDMMVMG

Variants of: B1
Test: protein stability index of a GFP-peptide fusion (GPS, HEK-293T) (PSI 1-6); higher = more stable
Conditions: c terminus: a fixed tail appended
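Also: lentivirally expressed fusions sorted by FACS into six bins by GFP to DsRed ratio, PSI derived from sequencing read proportions per bin multiplied by bin number.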

Protein stability index of substitutions, site by site:
M21: T 2.68 | P 3.27 | V 2.18 | S 2.65 | G 2.12 | E 4.11 | L 2.39 | W 1.9 | I 1.98 | R 2.23 | F 2.56 | C 2.14 | N 3.13 | Q 3 | Y 2.22 | H 3.02 | D 3.83 | K 2.95 | A 2.37
I15: F 3.39 | Q 4.4 | L 2.82 | E 4.99 | K 3.9 | C 3.64 | Y 2.95 | V 3.42 | N 3.94 | W 2.8 | P 4.02 | A 4 | R 3.89 | G 3.77 | S 3.6 | D 4.49 | M 3 | T 4.25 | H 3.95
L14: A 3.33 | Q 3.12 | K 3.89 | F 2.62 | R 3.4 | S 3.08 | Y 2.13 | G 3.96 | T 3.5 | N 4.2 | E 3.64 | H 3.86 | P 3.69 | I 1.87 | M 2.34 | W 1.59 | V 2.47 | D 4.59 | C 3.33
E6: R 1.51 | G 2.15 | A 1.83 | D 2.8 | I 2.69 | T 1.74 | N 1.96 | S 1.65 | Q 1.3 | K 1.77 | P 2.89 | W 1.81 | C 2.27 | F 2.45 | H 2.09 | Y 2.76 | M 4.33
M20: Y 1.72 | S 2.27 | P 3.77 | D 4.75 | I 2.03 | R 2.16 | T 3.4 | H 2.98 | E 4.02 | C 2.74 | L 1.9 | A 2.42 | K 2.91 | Q 2.72 | N 3.03 | W 2.51 | G 2.47 | V 2.68
N10: R 2.24 | V 2 | G 2.79 | F 2.53 | K 2.48 | P 3.37 | S 2.42 | H 2.19 | W 1.68 | T 2.19 | I 1.86 | Q 3.5 | Y 2.07 | C 2 | A 1.84 | L 1.64 | E 2.01 | M 2.1 | D 2.01
V22: M 2.19 | T 2.25 | H 1.85 | P 2.65 | Y 2.07 | W 1.77 | A 2.05 | E 3.18 | L 2.18 | C 2.19 | K 2.87 | R 2.46 | D 2.55 | G 2.54 | N 2.44 | S 1.99 | I 1.78 | Q 2.82
L8: K 3.98 | D 4.36 | R 3.38 | I 2.79 | P 4.09 | V 3.14 | F 3.78 | C 3.81 | W 2.83 | A 4.35 | Q 4.06 | H 3.85 | N 3.79 | T 3.92 | Y 3.22 | M 3.3 | E 4.29 | G 4.02 | S 4.28
N7: I 2.05 | K 2.43 | P 3.41 | Q 2.38 | W 1.49 | F 1.78 | D 3.11 | G 2.59 | C 3.03 | V 2.66 | T 2.62 | A 2.83 | H 1.92 | S 2.45 | M 1.67 | R 2.25 | L 2.48 | E 2.21 | Y 1.62
E12: T 2.06 | L 1.7 | H 2.42 | P 2.37 | M 2.54 | G 2.06 | R 1.71 | Y 2.13 | V 1.8 | S 2.92 | I 2.73 | C 1.55 | D 3.1 | Q 2.41 | W 2.71 | N 2.93 | K 2.46 | A 1.75 | F 2.22
E18: P 3.06 | Y 3.52 | W 1.02 | D 2.9 | G 2.52 | S 2.01 | F 3.08 | K 2.03 | R 2.67 | H 2.85 | Q 2.18 | L 2.22 | M 1.97 | I 1.58 | N 3.43
E16: G 2.62 | C 1.9 | M 2.92 | Y 1.94 | T 1.72 | F 2.14 | K 1.89 | S 1.89 | N 2.17 | H 1.97 | A 1.99 | P 2.79 | Q 1.48 | D 3.2 | R 1.83
D19: R 1.39 | T 1.94 | E 1.48 | G 2.52 | P 1.71 | W 4.57 | Q 2.06 | K 3.26 | A 2.36 | S 1.62 | N 2.63 | H 1.28 | F 2.37 | Y 2.48
C11: K 3.59 | R 3.34 | T 2.21 | H 3.63 | A 2.21 | F 2.56 | P 3.49 | W 2.21 | G 3.23 | S 2.37 | M 2.95 | Q 4.09 | V 2.75 | E 3.9 | I 2.3 | D 4.07 | N 3.92 | L 2.32 | Y 2.51
A9: C 2.48 | Q 2.91 | I 1.89 | L 2.06 | F 1.81 | W 1.39 | T 2.85 | E 3.65 | R 2.31 | D 4.18 | G 3.16 | S 2.64 | N 2.49 | P 3.84 | H 2.34 | M 2.57 | Y 2 | V 2.71 | K 2.3
A5: Q 2.05 | V 2.03 | Y 2.71 | W 1.81 | T 2.83 | S 2.55 | R 1.93
G24: A 2.03 | C 1.52 | D 2.33
M23: V 2.38 | T 1.8 | Q 3.21 | F 1.54 | I 1.47 | S 2.69 | C 2.09 | R 1.97 | L 1.89 | E 3.69 | Y 1.88 | D 3.57 | P 2 | W 2.1 | K 2.8 | A 2.61 | G 1.7 | H 2.24 | N 2.97
V17: K 2.38 | S 3.25 | W 2.09 | Q 2.43 | P 4.04 | E 2.97 | N 2.07 | R 2.88 | F 2.37 | D 3.57 | A 2.54 | M 2.04 | L 3.28 | Y 2.47 | C 1.98 | T 3.14 | I 2.16 | G 3.71 | H 2.35
R13: F 1.8 | V 1.49 | N 3.75 | C 2.08 | Q 3.17 | T 2.99 | L 3.24 | Y 2.17 | G 3.46 | S 3.15 | E 3.96 | H 3.03 | K 2.67 | W 2.42 | P 3.62 | A 2.33 | M 2.56 | D 4.24
